Laboratory results reported in PMC2902421, “Molecular cloning and biochemical characterization of a novel erythrose reductase from Candida magnoliae JH110” (Microbial Cell Factories, 2010).

Key:
Assay type in all cases: biochemical, Entelexis paramagnoliae
purified protein [1] = substrate: O=Cc1ccc([N+](=O)[O-])cc1; assay: purified protein; settings: NADPH in excess, pH 5.5 and 42 °C (given for D-erythrose)
purified protein [2] = substrate: NC(=O)C1=CN([C@@H]2O[C@H](COP(=O)(O)OP(=O)(O)OC[C@H]3O[C@@H](n4cnc5c(N)ncnc54)[C@H](OP(=O)(O)O)[C@@H]3O)[C@@H](O)[C@H]2O)C=CC1; assay: purified protein; settings: D-erythrose saturating, pH 5.5, 42 °C, varied: cofactor
[3] = substrate: NC(=O)c1ccc[n+]([C@@H]2O[C@H](COP(=O)(O)OP(=O)(O)OC[C@H]3O[C@@H](n4cnc5c(N)ncnc54)[C@H](OP(=O)(O)O)[C@@H]3O)[C@@H](O)[C@H]2O)c1; assay: steady-state kinetics; reaction not stated; settings: co-substrate not given; NADP+-dependent erythritol oxidation stated as not observed; varied: cofactor
From the text: steady-state kinetics; reaction not stated on CmER (C. magnoliae JH110 erythrose reductase; CmER2 in Table 2)

B1: CmER (C. magnoliae JH110 erythrose reductase; CmER2 in Table 2) (Entelexis paramagnoliae) (protein)
chain: MSSTYTLTRLSAPSMVLNSGSQIPAVGYGLWKQQGSEAKDSVRCAIESGYRHLDCATAYQNHKEVGQAIREAGVPRDELWITSKVWGTHFDNPEEGLDDILEELGVEYLDLLLLHLPVAFKRNPEDPKQLRGLPVDHDMKYADVWARMEKLPKSKVRNIGVSNLTVRALDELLQTAKVTPAVNQVEMHPNLPQKKLLDYCKSKGIVVQAYSPLAQGQHENPVVTDIADDLGVSPAQVVLSWGALRGTNILPKSSTPSRIRENLELIQLSDDHMRRIDALARR
notes: N-terminal GST fusion (pGEX-5X-3) in E. coli BL21 with chaperones, GST removed by Factor Xa
**Q.** With B1 as the protein, how does the Km (purified protein [1]) read?
**A.** The Km was 170 ± 10 µM.

**Q.** What about the kcat (purified protein [1]) of the same protein?
**A.** Its kcat is 1.4 ± 0.1 s⁻¹.

**Q.** And the kcat/Km (purified protein [1])?
**A.** Its kcat/Km is 8200 M⁻¹ s⁻¹.

**Q.** And the Km (purified protein [2])?
**A.** The Km was 16 ± 10 µM.

**Q.** And the kcat (purified protein [2])?
**A.** Its kcat is 48 ± 2.5 s⁻¹.

**Q.** And the kcat/Km (purified protein [2])?
**A.** The kcat/Km was 3e+06 M⁻¹ s⁻¹.

**Q.** And the Km [3]?
**A.** The Km was 240 ± 40 µM.

**Q.** And the kcat [3]?
**A.** Its kcat is 0.84 ± 0.06 s⁻¹.

**Q.** What about the kcat/Km [3] of the same protein?
**A.** The kcat/Km was 3500 M⁻¹ s⁻¹.
